Data: publication PMC5928113, “Properties of the ternary complex formed by yeast eIF4E, p20 and mRNA” (Scientific Reports, 2018)
Blank lines part the entries; values can stand above or below the molecule they belong to.

Key:
[1] = molecular target: T1, His6x-eIF4E (Saccharomyces cerevisiae) (UniProt P07260); test: EMSA; details: 5' m7GpppG cap (Vaccinia Capping System); Buffer A: 10 mM sodium phosphate pH 7.5, 100 mM NaCl, 2.5 mM MgCl2, 1 mM DTT, 0.05% NP40; MST at 25 C (proteins for capped RNA MST RED-tris-NTA labeled in …)
T1 sequence: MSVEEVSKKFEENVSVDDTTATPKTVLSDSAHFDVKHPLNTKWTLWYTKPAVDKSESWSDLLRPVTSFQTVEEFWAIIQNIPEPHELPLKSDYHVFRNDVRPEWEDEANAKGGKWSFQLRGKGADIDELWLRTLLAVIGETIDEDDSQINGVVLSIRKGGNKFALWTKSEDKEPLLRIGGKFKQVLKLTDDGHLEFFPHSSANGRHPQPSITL

[2] = molecular target: T1, His6x-eIF4E (Saccharomyces cerevisiae); test: MST; details: 5' m7GpppG cap (Vaccinia Capping System), Buffer A: 10 mM sodium phosphate pH 7.5, 100 mM NaCl, 2.5 mM MgCl2, 1 mM DTT, 0.05% NP40, MST at 25 C (proteins for capped RNA MST RED-tris-NTA labeled in …)
eIF4E (His6x-eIF4E) = molecular target: T2, eIF4E (His6x-eIF4E) (Saccharomyces cerevisiae, UniProt P07260); test: microscale thermophoresis, RED-tris-NTA labelled protein; type: binding; details: read-out: Cap-analog / MST
T2 construct: gene CDC33; recombinant, N-terminal His6x tag kept, codon-optimized gene in pET3a, E. coli BL21 Rosetta 2 (DE3)
T2 sequence (P07260 1-213): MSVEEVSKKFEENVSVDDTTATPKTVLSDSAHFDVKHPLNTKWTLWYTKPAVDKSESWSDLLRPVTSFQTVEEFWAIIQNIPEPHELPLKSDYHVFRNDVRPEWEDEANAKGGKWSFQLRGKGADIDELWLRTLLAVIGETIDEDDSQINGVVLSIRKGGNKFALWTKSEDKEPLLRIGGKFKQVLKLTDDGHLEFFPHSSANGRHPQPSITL
From the text: microscale thermophoresis, RED-tris-NTA labelled protein on eIF4E (His6x-eIF4E)

[3] = molecular target: T3, eIF4E/p20 complex (eIF4E/His6x-p20) (Saccharomyces cerevisiae, UniProt P07260); test: as above; type: binding; details: read-out: Cap-analog / MST
T3 construct: gene CDC33; recombinant complex, untagged eIF4E (pET28a) co-expressed with His6x-p20 (pET3a, tag kept) in E. coli BL21 Rosetta 2 (DE3); with Cap-associated protein CAF20
T3 sequence (P07260 1-213): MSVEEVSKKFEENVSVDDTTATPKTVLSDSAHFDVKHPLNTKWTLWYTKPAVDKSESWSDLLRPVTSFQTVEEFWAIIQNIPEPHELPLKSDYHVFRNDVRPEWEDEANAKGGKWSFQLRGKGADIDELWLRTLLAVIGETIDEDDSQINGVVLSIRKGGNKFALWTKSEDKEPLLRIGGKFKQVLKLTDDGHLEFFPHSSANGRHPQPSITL
T3 sequence (P12962 1-161 partner): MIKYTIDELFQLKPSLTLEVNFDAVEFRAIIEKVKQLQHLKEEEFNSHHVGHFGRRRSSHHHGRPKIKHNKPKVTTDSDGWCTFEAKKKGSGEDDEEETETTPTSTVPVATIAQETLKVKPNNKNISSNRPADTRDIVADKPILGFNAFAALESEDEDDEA
From the text: microscale thermophoresis, RED-tris-NTA labelled protein on eIF4E/p20 complex (eIF4E/His6x-p20)

His6x-eIF4E = molecular target: T4, His6x-eIF4E (Saccharomyces cerevisiae, UniProt P07260 1-213); test: MST; up to 96 uM protein; Buffer A: 10 mM sodium phosphate pH 7.5, 100 mM NaCl, 2.5 mM MgCl2, 1 mM DTT, 0.05% NP40; MST at 25 C (proteins for capped RNA MST RED-tris-NTA labeled in buffer B: 20 mM HEPES-KOH pH 7.5, 50 mM NaCl, 1 mM DTT); EMSA 1.5% agarose, 1x TBE, temperature not stated; details: protein: recombinant; tags: N-terminal His6x; label: 3' FAM
T4 sequence: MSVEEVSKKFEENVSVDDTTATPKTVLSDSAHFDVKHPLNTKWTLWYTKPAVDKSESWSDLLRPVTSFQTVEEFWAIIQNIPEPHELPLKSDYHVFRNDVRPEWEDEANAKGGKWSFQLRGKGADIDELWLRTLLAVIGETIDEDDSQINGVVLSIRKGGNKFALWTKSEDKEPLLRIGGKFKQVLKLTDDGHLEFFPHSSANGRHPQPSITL

Molecule: GGGAACAAAAGCUGGUAAUCAAGAAUUACAAGAAACAAAAAUUCAAGUAAAUAACAGAUAAUAC [capped SSA1 5'UTR RNA, 64 nt]
Kd [1]: 275 nM
Kd [2]: 226 nM
Kd ([2]; no peptide, control of the peptide experiment): 230 nM

Kd (eIF4E (His6x-eIF4E)): 425 nM
Kd [3]: 420 nM
Molecule: C[n+]1cn([C@@H]2O[C@H](COP(=O)(O)OP(=O)(O)OP(=O)(O)OC[C@H]3O[C@@H](n4cnc5c(=O)[nH]c(N)nc54)[C@H](O)[C@@H]3O)[C@@H](O)[C@H]2O)c2nc(N)[nH]c(=O)c21 [m^7GpppG]

Molecule: GUAUUACAAGAAACAAAAAUUCAAGUAAAUAACAGAUAAU (ssRNA) [uncapped SSA1 5'UTR RNA, 40 nt]
binding result (His6x-eIF4E): no binding
